Test results: PMC4792071 (The Journal of Cell Biology, 2016)
Where a chain is given by its changes, count along the chain named. Each block holds one binder with its values, some of them ahead of it.

Tests used:
Arl2^T30N-Venus = target: T1, Arl2^T30N-Venus (Drosophila melanogaster, UniProt Q06849 1-184, T30N); experiment: co-IP
T1 sequence (looked up): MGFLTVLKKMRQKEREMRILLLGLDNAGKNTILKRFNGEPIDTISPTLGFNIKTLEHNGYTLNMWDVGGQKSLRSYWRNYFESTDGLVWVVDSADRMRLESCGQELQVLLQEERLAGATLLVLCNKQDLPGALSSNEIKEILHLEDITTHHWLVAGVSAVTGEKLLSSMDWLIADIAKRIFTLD

Arl2^Q70L-Venus = target: T2, Arl2^Q70L-Venus (Drosophila melanogaster, UniProt Q06849 1-184, Q70L); experiment: co-IP
T2 sequence (looked up): T1 sequence (looked up) with N30T, Q70L

fold amount co-precipitated, against Arl2^Q70L-Venus (Arl2^T30N-Venus): ~3.1 fold
B1: HA-TBCE (natural protein, Drosophila melanogaster, UniProt A1Z6J5 1-523, looked up)
chain: MVGIIDEVQLFYPLGTRIKIGDNYGTVRYVGEVSGHMGSWLGIEWDDGLRGKHNGIVDGKRYFQTQTPTGGSFIRPGKVGPCATLEDAARERYLNYDSSNVDESLIREAQASLQASLFEVVGMDKIARKQSKFEQLEEVSVDQTPVNAAGYLKELTHLTTLNVSHTLIWNWEIVASIAQQLPSLTNLNLSSNRLVLPTSSQITELEPSFRQLKRINLRSCGFSDWKDVMHTALLWPNILSLGLQENSLGQLAEVDRTKIFKQLHELDLHRTNIMDFDQVTKLGNLTTLRLLNIMENGIEEIKLPDCDSQEKLNIFVSLEQLNLLHNPIWNEADAFNELDKLPQLKRLSKTPHLKSNFDEMFSKAVASIASLQFINKAEVTAEQRRGAEYDIWKKYALDWMQATQGGTDSLREFCRRHRTYPLLVKKYGSPADFVPRSQAKQSNLINVSIRHQLTGETWEKKVPRMITVQTLQGLVMKRFRLSGDVPQLCYVDALHPDLVVPLDNNAKTLDFYSVQEHDTVLVQ

fold amount co-precipitated, against Arl2^T30N-Venus (Arl2^Q70L-Venus): ~9.6 fold
B2: HA-TBCC (natural protein, Drosophila melanogaster, UniProt Q7KU40 1-355, looked up)
chain: MEGDAENRKDQILERLNKRNKDRQNYLDVKSELRSKETVQNEGVDYFYQTFSQKTMDIEQRLKDVQCGDGQPTDLARNFADITVEIQDLQRYLTASTMFLPDFKIKSCQNILNTLTAVSDETRQRLLPKKKFGFSGKKTVTKPKVPPNKDIVDAKLSKVPEKLGSNFTWTIANRTNEHIVLDSAKVNGQDITISKLNHCLVELQGHPGSVQVSRASKCTLLCGPIARSFFAENLEDCTLSIACQQLRLHSSRSIRIYMHVTCRAIIEDCKSIEIGEYNYDYSKLEADYLASGLNKAQNNYTDVADFNWLSPDVPSPNWSLLKDYPDPNWNALRRDFIANNHNSELKQDVKDISII
